Data taken from patent publication US6541220 (GENERAL HOSPITAL, dated 2003).
No end group written: not given here.

T1: zebrafish PTH1R receptor, clone zPTH1R#29 (shorter 5' UT, 149 bp), transiently expressed in COS-7 cells (zebrafish (Danio rerio))
T1 construct: Full-length cDNA expressed on intact COS-7 cells; also called zPPR1#29; zPTH1R(FL)/pcDNAI/Amp
T1 chain: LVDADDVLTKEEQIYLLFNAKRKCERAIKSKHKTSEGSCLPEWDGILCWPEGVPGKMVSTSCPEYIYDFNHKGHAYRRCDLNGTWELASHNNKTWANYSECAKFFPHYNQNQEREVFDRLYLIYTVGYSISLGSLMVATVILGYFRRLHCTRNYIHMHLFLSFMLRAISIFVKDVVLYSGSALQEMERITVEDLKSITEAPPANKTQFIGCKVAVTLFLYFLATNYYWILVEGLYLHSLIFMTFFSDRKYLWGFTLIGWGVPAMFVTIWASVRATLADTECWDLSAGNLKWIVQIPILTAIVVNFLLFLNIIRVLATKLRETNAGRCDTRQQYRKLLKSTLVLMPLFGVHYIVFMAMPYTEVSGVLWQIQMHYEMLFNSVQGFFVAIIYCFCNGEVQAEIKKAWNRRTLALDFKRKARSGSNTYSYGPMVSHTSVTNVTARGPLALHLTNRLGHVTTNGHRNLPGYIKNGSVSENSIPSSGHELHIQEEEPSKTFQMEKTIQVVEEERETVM

T2: zebrafish PTH1R receptor, clone zPTH1R#25 (longer 5' UT, 391 bp), transiently expressed in COS-7 cells (zebrafish (Danio rerio))
T2 construct: only the 5' UT differs; also called zPPR1#25
T2 chain: T1 chain

T3: zebrafish PTH3R receptor, transiently expressed in COS-7 cells (zebrafish (Danio rerio))
T3 construct: Full-length cDNA expressed on intact COS-7 cells; also called zPTH3R; zPPR3
T3 chain: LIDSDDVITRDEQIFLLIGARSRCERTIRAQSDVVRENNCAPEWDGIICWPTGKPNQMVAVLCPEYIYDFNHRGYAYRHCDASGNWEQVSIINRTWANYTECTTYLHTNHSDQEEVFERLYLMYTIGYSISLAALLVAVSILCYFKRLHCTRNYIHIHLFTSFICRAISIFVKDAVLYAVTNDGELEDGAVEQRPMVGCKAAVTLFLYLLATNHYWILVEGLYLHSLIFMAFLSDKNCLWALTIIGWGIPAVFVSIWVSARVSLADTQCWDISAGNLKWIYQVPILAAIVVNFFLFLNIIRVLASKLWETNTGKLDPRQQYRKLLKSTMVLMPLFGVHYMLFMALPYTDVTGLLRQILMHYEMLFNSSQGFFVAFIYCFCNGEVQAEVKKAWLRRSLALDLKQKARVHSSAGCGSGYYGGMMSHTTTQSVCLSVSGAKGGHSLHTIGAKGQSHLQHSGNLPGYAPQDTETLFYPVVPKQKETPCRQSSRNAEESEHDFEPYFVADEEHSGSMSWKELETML

B1: 125I-labeled [Nle8,21,Tyr34]rPTH-(1-34)amide (peptide)
peptide: AVSEIQLXHNLGKHLASVERXQWLRKKLQDVHNY
modifications: Nle at 8 and 21; C-terminal amide; 125I-labeled
notes: Synthetic analog of rat PTH(1-34), used as radioligand
B2: [Tyr34]hPTH(1-34)amide (peptide)
peptide: SVSEIQLMHNLGKHLNSMERVEWLRKKLQDVHNY-NH2
notes: Synthetic analog of human PTH(1-34) with Tyr at 34

Columns and labels:
[1] = molecular target: T1, zebrafish PTH1R receptor, clone …; assay: radioligand binding on COS-7 cells expressing the receptor
Description: (§1) Plasmid DNAs encoding the two full length zPTH1Rs (#25 and #29) and the zPTH3R were transiently expressed in COS-7 cells. COS-7 African green monkey kidney cells (approximately 200,000 cells/well in a 24-well plate) were cultured and transfected with plasmid DNA (200 ng/well) as described (Rubin et al., (1998)). After transfection, cells were cultured for 72 hrs at 37° with daily exchanges of medium, followed by an additional 24 hrs at 33° (Gardella et al., (1997)) until they were functionally evaluated after 96 hrs.
(§2) Peptides were synthesized by the MGH polymer core facility as described (Gardella et al., (1996)). Specific binding was calculated by subtracting radioligand binding in the presence of excess unlabeled peptide from the total binding. All points represent mean±S.E.M. of two to three replicates from two or more independent experiments.

[2] = molecular target: T2, zebrafish PTH1R receptor, clone …; assay: as above
Description: as §1, §2

[3] = molecular target: T3, zebrafish PTH3R receptor, transiently …; assay: as above
Description: as §1, §2

[4] = molecular target: T1, zebrafish PTH1R receptor, clone …; assay: cell-based or functional assay
[5] = molecular target: T1, zebrafish PTH1R receptor, clone …; assay: cell-based or functional assay
[6] = molecular target: T2, zebrafish PTH1R receptor, clone …; assay: cell-based or functional assay
[7] = molecular target: T3, zebrafish PTH3R receptor, transiently …; assay: cell-based or functional assay
[8] = molecular target: T1, zebrafish PTH1R receptor, clone …; assay: competitive radioligand binding on intact COS-7 cells expressing the receptor, room temperature; unlabeled hPTH, radioligand not clearly stated (125I-rPTH or 125I-PTHrP)
Description: as §2
(§3) Table 3. Binding and cAMP Signaling Properties of PTH and PTHrP Analogs on the zPTH1R and the zPTH3R Competitive binding and cAMP stimulation assays were performed at room temperature with intact COS-7 cells that expressed either the zPTH1R or the zPTH3R, as described in Materials and Methods. […] Values are the mean±SEM of at least three independent transfections. ND, not determined.

[9] = molecular target: T2, zebrafish PTH1R receptor, clone …; assay: as above
Description: as §2, §3

[10] = molecular target: T3, zebrafish PTH3R receptor, transiently …; assay: as above
Description: as §2, §3

Binder	binding result [1]	binding result [2]	binding result [3]	IP accumulation (total inositol phosphates, 10^-6 M ligand) [4]	cAMP EC50 [5]	cAMP Maximum [5]	cAMP EC50 [6]	cAMP Maximum [6]	cAMP EC50 [7]	cAMP Maximum [7]	IC50 [8]	IC50 [9]	IC50 [10]
B1	binds	binds	binds	–	–	–	–	–	–	–	–	–	–
B2	–	–	–	2 fold	0.8 nM	106 pmol/well	~3 nM	90.4 pmol/well	5.98 nM	227 pmol/well	~3 nM	~3 nM	~100 nM
